How the values were obtained:
[1] = molecular target: T1, recombinant KIT D4/D5 polypeptide (D4/D5 region of human KIT, V308 to H515, with 5xHis tag) (human, UniProt P10721 26-519); experiment: competition solid phase ELISA on KIT D4/D5 antigen; 37C titrated with competitor 37M at 10 nM
T1 construct: also called KIT D4/D5 antigen; KIT immunogen
Protocol: (§1) Competitive binding assays were carried out with antibody 37M or 37C as described below and using solid phase ELISA as described in Example 2 (Section 6.2). In particular, serial dilutions of the reference antibody (either 37M or 37C) were combined with constant concentrations of a competing antibody (37M in the case of 37C, and 37C in the case of 37M) and incubated in wells of 96-well plates coated with a recombinant KIT polypeptide containing the D4/D5 region depicted in FIG. 2A. Reference antibody binding was then detected through the use of an HRP-conjugated, species-specific secondary antibody. Antibody 37M has a mouse constant region while antibody 37C has a human constant region. Therefore, when antibody 37M was used as a reference antibody and antibody 37C was used as a competing antibody, the reference antibody was detected using an anti-mouse IgG secondary antibody; and when antibody 37C was used as a reference antibody and antibody 37M was used as a competing antibody, the reference antibody was detected using an anti-human IgG secondary antibody. […]
(§2) Eight, 3-fold dilutions of the reference antibody samples were prepared beginning at 20 nM (2×), and combined 1:1 with a 20 nM solution of the competing antibody to yield final 1× values. […] The plates were processed similarly as described above for data collection on a plate reader. […]

[2] = molecular target: T1, recombinant KIT D4/D5 polypeptide …; experiment: solid phase ELISA, antigen coated on the plate
Protocol: The binding activity of antibodies 37M and 37C obtained from mice immunized with a KIT immunogen containing the D4/D5 region of the human KIT extracellular region was characterized by solid phase ELISA. […] The binding affinity of antibody 37C for an antigen containing the D4/D5 region (see FIG. 2A) of human KIT was also tested by solid phase ELISA. The general protocol used for the solid phase ELISA experiments are described below.
Preparation of antibody sample with serial dilution: Dilution buffer (100 μL) was added to columns 1 and 7 of a 96 well plate, and 50 μL of dilution buffer were added to all the remaining wells. The test antibody (100 μL) was added to the first well containing 100 μL dilution buffer, mixed by pipetting, and 50 μL from the first well were removed and added into the second well and mixed. This dilution step was repeated across the row until the dilution step was repeated for a total of six dilutions. This dilution process was repeated for each sample.
ELISA: The plate with the absorbed antigen was removed from the −80° C. freezer and was allowed to thaw at room temperature. The borate buffer was removed by flicking the plate into the sink and blotting the plate dry. Blocking buffer (200 μL) was added to each well and was allowed to incubate at room temperature for one hour. The blocking buffer was removed, again by flicking the plate into the sink. […]

[3] = molecular target: full-length, wild-type human KIT receptor expressed on cells (human, UniProt P10721 26-976); experiment: cell-based or functional assay
full-length, wild-type human KIT receptor expressed on cells, sequence (P10721 other isoform, or with tags, fused parts or gaps limits assumed): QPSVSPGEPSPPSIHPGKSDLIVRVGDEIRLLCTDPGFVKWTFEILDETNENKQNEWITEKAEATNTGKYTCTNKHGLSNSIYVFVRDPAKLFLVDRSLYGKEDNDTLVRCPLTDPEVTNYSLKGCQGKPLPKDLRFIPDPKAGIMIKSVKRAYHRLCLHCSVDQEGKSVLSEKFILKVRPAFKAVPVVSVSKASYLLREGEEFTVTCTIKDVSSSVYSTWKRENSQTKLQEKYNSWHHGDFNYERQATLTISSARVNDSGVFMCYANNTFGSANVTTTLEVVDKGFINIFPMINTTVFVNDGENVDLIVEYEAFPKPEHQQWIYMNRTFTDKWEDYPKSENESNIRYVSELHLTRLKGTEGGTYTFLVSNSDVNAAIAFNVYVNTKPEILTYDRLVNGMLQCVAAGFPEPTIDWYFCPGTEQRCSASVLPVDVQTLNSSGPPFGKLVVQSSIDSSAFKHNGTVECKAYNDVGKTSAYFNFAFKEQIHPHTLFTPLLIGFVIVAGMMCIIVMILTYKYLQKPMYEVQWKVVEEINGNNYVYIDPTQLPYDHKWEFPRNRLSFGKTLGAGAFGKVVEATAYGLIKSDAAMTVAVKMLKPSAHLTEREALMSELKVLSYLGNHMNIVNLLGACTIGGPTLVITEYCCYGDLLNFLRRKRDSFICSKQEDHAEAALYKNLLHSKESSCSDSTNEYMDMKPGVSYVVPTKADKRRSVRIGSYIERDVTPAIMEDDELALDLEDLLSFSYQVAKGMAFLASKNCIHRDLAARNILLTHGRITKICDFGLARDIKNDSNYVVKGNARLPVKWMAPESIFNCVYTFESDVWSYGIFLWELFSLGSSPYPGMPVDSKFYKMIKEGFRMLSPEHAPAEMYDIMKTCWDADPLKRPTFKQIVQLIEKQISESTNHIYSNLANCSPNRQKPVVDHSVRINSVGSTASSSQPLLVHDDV

[4] = molecular target: T1, recombinant KIT D4/D5 polypeptide …; experiment: competition solid phase ELISA on KIT D4/D5 antigen; 37C titrated alone, without competitor
Protocol: as §1, §2

T1 sequence (P10721 other isoform, or with tags, fused parts or gaps): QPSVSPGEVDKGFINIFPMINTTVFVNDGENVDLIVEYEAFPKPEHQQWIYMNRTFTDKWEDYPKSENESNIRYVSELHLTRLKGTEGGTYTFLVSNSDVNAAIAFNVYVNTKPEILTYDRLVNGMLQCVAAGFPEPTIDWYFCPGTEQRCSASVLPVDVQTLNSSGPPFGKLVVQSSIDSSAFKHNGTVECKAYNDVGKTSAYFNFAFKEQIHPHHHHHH

Binder | EC50 [1] [nM] | EC50 [2] [nM] | 50% inhibition concentration (IC50), cell-based phospho-KIT assay, unsorted CHO/KIT-WT cells (FIG. 8) [3] [nM] | IC50, cell-based phospho-KIT assay, sorted (high KIT expression) CHO/KIT-WT cells (FIG. 11B) [3] [nM] | EC50 [4] [nM]
antibody 37C (antibody, human IgG1, kappa, V domains shown, also called chimeric antibody 37C) VH: QVQLKQSGAELVRPGASVKLSCKASGYTFTDYYINWVKQRPGQGLEWIARIYPGSGNTYYNEKFKGKATLTAEKSSSTAYMQLSSLTSEDSAVYFCARGVYYFDYWGQGTTLTVSA VL: DIVMTQSQKFMSTSVGDRVSVTCKASQNVRTNVAWYQQKPGQSPKALIYSASYRYSGVPDRFTGSGSGTDFTLTISNVQSEDLADYFCQQYNSYPRTFGGGTKLEIKR | 1 | ~0.196 | ~0.167 | ~0.334 | 0.048
antibody 37M (antibody, V domains shown) VH: QVQLKQSGAELVRPGASVKLSCKASGYTFTDYYINWVKQRPGQGLEWIARIYPGSGNTYYNEKFKGKATLTAEKSSSTAYMQLSSLTSEDSAVYFCARGVYYFDYWGQGTTLTVSS VL: DIVMTQSQKFMSTSVGDRVSVTCKASQNVRTNVAWYQQKPGQSPKALIYSASYRYSGVPDRFTGSGSGTDFTLTISNVQSEDLADYFCQQYNSYPRTFGGGTKLEIKR |  |  |  | ~0.315 | 
